Here are results for 1 sequence from patent US20120003668A1, “HIGH RESOLUTION COMPLEX STRUCTURE AND ALLOSTERIC EFFECTS OF LOW MOLECULAR WEIGHT ACTIVATORS ON THE PROTEIN KINASE PDK1” (UNIVERSITAET DES SAARLANDES, priority 2008, published 2012).

This experiment deals with T1, PDK1 CD wt (Homo sapiens, UniProt O15530).
T1 construct: PDK1 CD (50-359), wt (0.35 μM), PDK1 [Phe224Trp] or PDK1 [Thr226Trp] were injected onto the system; GST (N); made in house; host or cells: insect cells
T1 sequence (O15530 50-359): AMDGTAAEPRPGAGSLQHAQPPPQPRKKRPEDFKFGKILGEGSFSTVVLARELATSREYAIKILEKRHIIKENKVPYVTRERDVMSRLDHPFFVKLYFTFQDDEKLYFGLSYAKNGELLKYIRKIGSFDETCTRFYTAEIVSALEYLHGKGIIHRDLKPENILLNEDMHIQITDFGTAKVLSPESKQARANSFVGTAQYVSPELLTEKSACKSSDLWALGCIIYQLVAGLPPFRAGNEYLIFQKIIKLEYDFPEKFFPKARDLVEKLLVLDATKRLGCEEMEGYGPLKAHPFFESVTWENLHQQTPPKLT
Briefly: Surface plasmon resonance (BiaCore) on biotin-P-HM-S6K chip. The experiment is classed as binding. Particulars: protein pre-incubated with PIFtide. As for the experimental part:
Surface Plasmon resonance (BiaCore) and alpha-screen interaction and displacement assays: Binding of GST-PDK1 to a P-HM-polypeptide derived from S6K1 shown in FIG. 6 was analysed by surface plasmon resonance on a BiaCore 3000 system using a streptavidin-coated Sensor chip (SA) and biotin-P-HM-polypeptide, as previously described (Biondi, R. M. et al., Embo. J. 20:4380-4390 (2001). The interaction of His-PDK1 with biotin-PIFtide and the displacement by compounds shown in FIG. 3 was performed using the alpha-screen Ni-Chelate kit (Perkin Elmer) on an Envision 2104 multilabel system (Perkin Elmer).
BiaCore analysis was performed as described previously (Biondi, R. M. et al., Embo. J. 19:979-988 (2000)). […] Since both mutants were performed on the same construct of PDK1, their mass should be very similar and therefore should also produce 600RU when all biotin-(P)HM-S6K polypeptides on the same chip are bound to the mutant PDK1 proteins. Unfortunately, when mutant PDK1 Phe224Trp and PDK1 Thr226Trp were analysed, the injection of the mutants at concentrations higher than 1.3 μM prompted unspecific effects, therefore making difficult the evaluation. […]

On to “REPRILSEEEQEMFRDFDYIADWC [PIFtide, polypeptide derived from the C-terminal 24 amino acids of the PDK1 substrate PRK2]”, for which the “displacement by PIFtide of PDK1 binding to biotin-P-HM-S6K” value is “displaced”.
